This is an account of results in publication PMC7515630, “Optogenetic activation of heterotrimeric G-proteins by LOV2GIVe, a rationally engineered modular protein” (eLife, 2020).

This assay deals with T1, GST-LOV2GIV (L) (Avena sativa | , FMN chromophore. GST omitted. The exact sequence and junction are in Supplementary file 1, so limits are by convention: AsLOV2 404-546 and the UniProt GBA motif. The paper's GIV numbering is the displ).
T1 chain: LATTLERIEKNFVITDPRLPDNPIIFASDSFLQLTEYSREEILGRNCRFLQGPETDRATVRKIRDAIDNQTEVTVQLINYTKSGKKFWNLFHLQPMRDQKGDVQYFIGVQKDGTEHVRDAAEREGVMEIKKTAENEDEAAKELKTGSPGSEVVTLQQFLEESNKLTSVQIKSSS
The experiment in a line: pull-down; ~20 µg purified GST-fused construct on glutathione-agarose beads, 3 µg (~300 nM) purified His-tagged Gα; 4 hr at 4°C in 50 mM Tris-HCl pH 7.4, 100 mM NaCl, 0.4% NP-40, 10 mM MgCl2, 5 mM EDTA, 1 mM DTT, 30 µM GDP; immunoblot for His. The settings on record: both partners purified. Background: A western blot detects proteins with antibodies after separation by electrophoresis.

B1: His-Gαi3 (rat) (natural protein, UniProt P08753 1-354, looked up)
chain: MGCTLSAEDKAAVERSKMIDRNLREDGEKAAKEVKLLLLGAGESGKSTIVKQMKIIHEDGYSEDECKQYKVVVYSNTIQSIIAIIRAMGRLKIDFGEAARADDARQLFVLAGSAEEGVMTSELAGVIKRLWRDGGVQACFSRSREYQLNDSASYYLNDLDRISQTNYIPTQQDVLRTRVKTTGIVETHFTFKELYFKMFDVGGQRSERKKWIHCFEGVTAIIFCVALSDYDLVLAEDEEMNRMHESMKLFDSICNNKWFTDTSIILFLNKKDLFEEKIKRSPLTICYPEYTGSNTYEEAAAYIQCQFEDLNRRKDTKEVYTHFTCATDTKNVQFVFDAVTDVIIKNNLKECGLY
notes: rat Gαi3, G-protein alpha subunit i3; kept with GDP in the buffers; also called pET28b-Gαi3; source: E. coli BL21(DE3), purified (HisPur cobalt resin, desalting)
With B1, the “fold binding over the dark conformation, LOV2GIV (D)” value is around 3 fold.
